# Experimental data taken from publication PMC10256718.
# Target: Quinol-dependent nitric oxide reductase from Alcaligenes xylosoxidans (His-tagged AxqNOR-BRIL) (Alcaligenes xylosoxidans)
# Experiment: cryo-EM structure; single-particle cryoEM, 2.2 Å, refined in C2 symmetry; sample at 3 mg/mL in Tris-HCl buffer pH 7.0, 150 mM NaCl, 0.05% DTM; dimer
substance,measurement,value
Quinol-dependent nitric oxide reductase from Alcaligenes xylosoxidans (His-tagged AxqNOR-BRIL) (enzyme),stoichiometry N,2
